T1: PUF4 RNA-binding domain (Saccharomyces cerevisiae, UniProt P25339 537-888)
T1 sequence: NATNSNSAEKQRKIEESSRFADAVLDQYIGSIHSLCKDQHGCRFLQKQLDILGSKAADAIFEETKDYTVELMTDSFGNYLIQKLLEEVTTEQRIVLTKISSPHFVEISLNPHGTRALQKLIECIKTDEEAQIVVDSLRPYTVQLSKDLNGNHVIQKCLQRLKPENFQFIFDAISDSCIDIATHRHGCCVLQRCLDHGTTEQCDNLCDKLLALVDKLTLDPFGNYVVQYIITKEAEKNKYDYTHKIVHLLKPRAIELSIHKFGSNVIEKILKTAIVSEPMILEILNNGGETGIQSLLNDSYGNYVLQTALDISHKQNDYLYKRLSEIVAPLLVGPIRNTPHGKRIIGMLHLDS

B1: Id_ii_S3_P3E.3_K3.2_C3.2_[T-1G]_H3.2_A3.1_F3.1_T3.2_[T9A]_[A10G] (ssRNA)
RNA: ACAAACCGUAUAUAUAAGACAAAC
B2: Id_ii_S3_P3E.3_K3.2_C3.2_H3.2_A3.1_F3.1_T3.2_[T9A]_[A10C] (ssRNA)
RNA: ACAAACCUUAUAUAUAACACAAAC
B3: Id_ii_S3_P3E.3_K3.2_C3.2_[T-1C]_H3.2_A3.1_F3.1_T3.2_[T9C]_[A10T] (ssRNA)
RNA: ACAAACCCUAUAUAUACUACAAAC
B4: Ic_S1_P5E.1_K5.1_C5.1_H5.1_A5.1_[T5A]_F5.1_[A10G]_T5.1 (ssRNA)
RNA: UCUCUUUGUAAUAUUGUCUCUU
B5: Ic_S1_P5E.1_K5.1_C5.1_H5.1_A5.1_[T5G]_F5.1_[A10G]_T5.1 (ssRNA)
RNA: UCUCUUUGUAGUAUUGUCUCUU
B6: Id_ii_S3_P3E.3_K3.2_C3.2_[T-1C]_H3.2_A3.1_F3.1_T3.2_[T9C]_[A10C] (ssRNA)
RNA: ACAAACCCUAUAUAUACCACAAAC
B7: Id_ii_S3_P3E.3_K3.2_C3.2_H3.2_A3.1_F3.1_T3.2_[T9C]_[A10C] (ssRNA)
RNA: ACAAACCUUAUAUAUACCACAAAC
B8: Id_ii_S3_P3E.3_K3.2_C3.2_H3.2_A3.1_F3.1_T3.2_[A10T] (ssRNA)
RNA: ACAAACCUUAUAUAUAUUACAAAC
B9: Id_ii_S3_P3E.3_K3.2_C3.2_[T-1A]_H3.2_A3.1_F3.1_T3.2_[T9A]_[A10G] (ssRNA)
RNA: ACAAACCAUAUAUAUAAGACAAAC
B10: Id_ii_S3_P3E.3_K3.2_C3.2_[T-1C]_H3.2_A3.1_F3.1_T3.2_[A10G] (ssRNA)
RNA: ACAAACCCUAUAUAUAUGACAAAC
B11: Id_ii_S3_P3E.3_K3.2_C3.2_H3.2_A3.1_F3.1_T3.2 (ssRNA)
RNA: ACAAACCUUAUAUAUAUAACAAAC
B12: Id_ii_S3_P3E.3_K3.2_C3.2_[T-1A]_H3.2_A3.1_F3.1_T3.2_[T9A] (ssRNA)
RNA: ACAAACCAUAUAUAUAAAACAAAC
B13: Ib_S1_P5E.1_K5.1_C5.1_H5.1_A5.1_[A7T]_F5.1_[T9A]_T5.1 (ssRNA)
RNA: UCUCUUUGUAUUUUAAUCUCUU
B14: Id_ii_S3_P3E.3_K3.2_C3.2_[T-1G]_H3.2_A3.1_F3.1_T3.2_[T9G] (ssRNA)
RNA: ACAAACCGUAUAUAUAGAACAAAC
B15: Id_ii_S3_P3E.3_K3.2_C3.2_H3.2_A3.1_F3.1_T3.2_[A10C] (ssRNA)
RNA: ACAAACCUUAUAUAUAUCACAAAC
B16: Id_ii_S3_P3E.3_K3.2_C3.2_H3.2_A3.1_F3.1_T3.2_[A10G] (ssRNA)
RNA: ACAAACCUUAUAUAUAUGACAAAC
B17: Id_ii_S3_P3E.3_K3.2_C3.2_[T-1C]_H3.2_A3.1_F3.1_T3.2_[A10T] (ssRNA)
RNA: ACAAACCCUAUAUAUAUUACAAAC
B18: Id_ii_S3_P3E.3_K3.2_C3.2_[T-1A]_H3.2_A3.1_F3.1_T3.2_[T9G]_[A10C] (ssRNA)
RNA: ACAAACCAUAUAUAUAGCACAAAC
B19: Id_ii_S3_P3E.3_K3.2_C3.2_H3.2_A3.1_F3.1_T3.2_[T9G]_[A10C] (ssRNA)
RNA: ACAAACCUUAUAUAUAGCACAAAC
B20: Id_ii_S3_P3E.3_K3.2_C3.2_[T-1C]_H3.2_A3.1_F3.1_T3.2_[T9G]_[A10T] (ssRNA)
RNA: ACAAACCCUAUAUAUAGUACAAAC
B21: Ia_S1_P5E.1_K5.1_C5.1_H5.1_A5.1_[T5G]_F5.1_T5.1 (ssRNA)
RNA: UCUCUUUGUAGUAUUAUCUCUU
B22: Id_ii_S3_P3E.3_K3.2_C3.2_[C-2A]_H3.2_A3.1_F3.1_T3.2 (ssRNA)
RNA: ACAAACAUUAUAUAUAUAACAAAC
B23: Id_ii_S3_P3E.3_K3.2_C3.2_[T-1A]_H3.2_A3.1_F3.1_T3.2_[T9A]_[A10C] (ssRNA)
RNA: ACAAACCAUAUAUAUAACACAAAC
B24: Id_ii_S3_P3E.3_K3.2_C3.2_[T-1G]_H3.2_A3.1_F3.1_T3.2_[T9C]_[A10C] (ssRNA)
RNA: ACAAACCGUAUAUAUACCACAAAC
B25: Id_ii_S3_P3E.3_K3.2_C3.2_[C-2A]_H3.2_A3.1_F3.1_T3.2_[A10T] (ssRNA)
RNA: ACAAACAUUAUAUAUAUUACAAAC
B26: Id_ii_S3_P3E.3_K3.2_C3.2_[T-1G]_H3.2_A3.1_F3.1_T3.2_[T9A] (ssRNA)
RNA: ACAAACCGUAUAUAUAAAACAAAC
B27: Id_ii_S3_P3E.3_K3.2_C3.2_[C-2A]_H3.2_A3.1_F3.1_T3.2_[A10C] (ssRNA)
RNA: ACAAACAUUAUAUAUAUCACAAAC

Biological target: T1, PUF4 RNA-binding domain
Experiment: Mg; RNA-MaP; 20 mM Na-HEPES pH 7.4, 30 mM KOAc, 0.75 mM MgCl2, 0.1% Tween-20, 5% glycerol, 0.1 mg/mL BSA, 2 mM DTT; 25 C; 0.0125-409.6 nM protein
Settings: tags: N-His6-TEV cleaved; C-SNAP kept, Cy3B-labelled; label: tethered on chip by stalled RNA polymerase

Row | Binder | Kd [nM]
1 | B1 | 796
2 | B2 | 513
3 | B3 | 45.5
4 | B4 | 14.9
5 | B5 | 81.1
6 | B6 | 614
7 | B7 | 845
8 | B8 | 28.1
9 | B9 | 546
10 | B10 | 769
11 | B11 | 500
12 | B12 | 1420
13 | B13 | 3.42
14 | B14 | 366
15 | B15 | 396
16 | B16 | 632
17 | B17 | 32.7
18 | B18 | 328
19 | B19 | 144
20 | B20 | 392
21 | B21 | 30
22 | B22 | 462
23 | B23 | 724
24 | B24 | 1540
25 | B25 | 33.2
26 | B26 | 697
27 | B27 | 450
